For one series, the system named is BV2 microglia. The experiment in a line: Western blot of PI3K phosphorylation in BV2 microglia. Format: cell-based, mouse. Here is the method:
For WB, mouse BV2 cell line was used in this study. It was purchased from ATCC (CRL-2469), and was cultured in DMEM (Thermo Fisher Scientific, Cat. No. 11885084) supplemented with 10% FBS at 37° C. with 5% C02. The medium was changed every 3 days. Cells were then seeded onto 6-well plates and stimulated with LPS (Sigma, Cat #L6529-1MG) for 6 hours and followed by IGFBPL1 (400 ng/ml, R&D system, 4130-BL) and/or IGF1 analog (10 uM, BACHEM, H-1356, Cat. No. 4018631) or NBI-31772 (10 μM, EMD Millipore, Cat. No. 479830). Cells were harvested 48 hrs for following western blotting.
WB was performed as previously noted^29. Cell or tissue samples were sonicated in a cold RIPA buffer supplemented with a 1:100 FAST protease inhibitor (S8830, Sigma-Aldrich, St Louis, MO, USA). […] The total Protein concentration of resulting supernatants was determined using the Qubit 4 Fluorometer (Thermo Fisher Scientific, Waltham, MA, USA). […] Signals were developed with ECL using a Super Signal West Pico kit (Thermo Fisher Scientific, Waltham, MA, USA) and detected with iBright CL 1500 (Thermo Fisher Scientific, Waltham, MA, USA). […] All the quantification results were averaged from three protein blots and expressed as the mean ratio of the values (target protein/housekeeping protein)±standard deviation (SD). […]

For the next series, the system named is retinal microglia. The experiment in a line: Proteome profiler mouse cytokine array on supernatants of LPS-treated retinal microglial cultures. Format: cell-based. Particulars: IGFBPL1 400 ng/ml added 6 hr after LPS 1 μg/ml; total 48 hours. Here is the method:
Retinal microglia isolation started from dissecting retinas out from CX3CR1/GFP mice. The single cell suspension was obtained followed by papain digestion (20 units; Worthington, Lk003150). Tap every 3-5 mins until completely digested and then add equal volume of inhibitor to neutralize the reaction. Then the supernatants were removed by centrifuge at 300 g for 8 mins. Resuspend retinal cell pellets from CX3CR1/GFP mice into cell staining buffer (BioLegend, 420201) with pacific blue anti-mouse CD11b primary antibody (Biolegend, 101224). […]
As described above, microglial cells were sorted from CX3CR1/GFP mice as described above. […] The array membranes were imaged with iBright CL1500 imaging system (ThermoFisher Scientific, USA) and the results were analyzed using ImageJ software.
To investigate if IGFBPL1 directly mediates microglial function, we studied gene profiling changes in isolated microglial cultures treated by IGFBPL1. Retinal microglia were purified from mice expressing green fluorescence protein (GFP) driven under a microglial specific promoter Cx3cr1 (Cx3cr1-Gfp) using fluorescence-activated cell sorting (FACS)^12. […] This effects of IGFBPL1 on suppressing microglial activation were verified by cytokine arrays, which measured 36 mouse pro-inflammatory cytokines, chemokines from supernatants of microglial cultures. […]

B1: IGFBPL1: insulin-like growth factor binding protein like protein 1; recombinant protein (R&D system, 4130-BL) (protein)
chain: LGLRDAGRRHPECSPCQQDRCPAPSPCPAPWISARDECGCCARCLGAEGASCGGPVGSRCGPGLVCASRASGTAPEGTGLCVCAQRGAVCGSDGRSYSSICALRLRARHAPRAHHGHLHKARDGPCEFAPVVLMPPRDIHNVTGTQVFLSCEVKAVPTPVITWKKVKHSPEGTEGLEELPGDHVNIAVQVRGGPSDHETTSWILINPLRKEDEGVYHCHAANAIGEAQSHGTVTVLDLNRYKSLYSSVPGDLL
B1: the “Increase in PI3K phosphorylation” value with BV2 microglia (IGFBPL1 added 6 hr after LPS challenge) is on record as 8 fold. Moreover, in the series on BV2 microglia (IGFBPL1 alone, no LPS), the “PI3K signaling, individual treatment” value is reported as “did not alter PI3K signaling”. In addition, the “Reversal of LPS-induced inflammatory cytokines (cytokine array, 36 cytokines/chemokines)” value in the series with retinal microglia is listed as “completely reverted the LPS-induced inflammatory cytokines to the control levels”.

These data come from patent US20250051458A1, “Methods for Treating Neurodegeneration Targeting IGF1/IGF1R” (The Schepens Eye Research Institute, Inc., priority 2021, published 2025).
